Measured values: the domain aggregation screens of Martell et al. (2025)

Test: soluble fraction after stress (log2 fold change); higher = more stays soluble; pooled small domains, quantitative proteomics
Conditions: stress: pH 4
In short: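 After pH 4 stress, pooled custom libraries of small protein domains were quantified with high-throughput quantitative proteomics. Aggregation propensity is taken from the fold change in each domain's soluble amount following the acid stress. The scale is log2, where higher values mean more stayed soluble.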

HMTVGEKIQYYRKKIGLSQEELGQKMLLSRQTISLWEMDKTLPTVDNLLRLKEIFSVSIDELLSENEPK
soluble fraction (log2): -0.257

HMTVKNFNDLPGFKNENLAELKAMGITTISELAEALNDGGKIKEIIKNLSGVGPKTAEKWKDAIG
soluble fraction (log2): -0.173

HMTVKVPDLRGKTLAEMQRILDDAGLKYEINDSTFSRTAIPGTVREVIPAPGSEVKLGRILFIAINGF
soluble fraction (log2): 0.00881

HMTVLIDEQSSDGLLKITVTANTAVKSITIADELLEDKEQLEDYLILVLNKAIARANQVNQTELDAVAK
soluble fraction (log2): 0.163

HMTVPAGIVLSSIRQDGDVLHIRGTAQSTERLNFFRNSFSASWGSPAQNGKRKADPVTGLVDFTISLK
soluble fraction (log2): -1.16

HMTVPMKILILEDEQRNAMRLIRLLNDIDTTFIIEGPLTNIKEAVDFFQSGKTTDLILADIRL
soluble fraction (log2): -0.489

HMTVSADQTTADAVIKLIDAIGTVSKNSGSAISAARSGYDALTDAQKKLVTNYNKLTQAEQVFSSLS
soluble fraction (log2): -0.165

HMTVSLTDVPFVPEILDRLERPELDVLLAILNGATNTFDLAAKTGRSRDELDEVLDRLTTLGLIER
soluble fraction (log2): -1.12

HMTVTLTTLRNGSTGAQVKTLQRLLSAMDYYNGETDGKFGISTAAAVKAFQRAKRLTVDGIVGKNTWTALL
soluble fraction (log2): -0.0337

HMTVTMADISQAYNEKRYLTTISLSNTYLTFAKPTTELLSIRYRTYFIIGKYAESLTEIAKL
soluble fraction (log2): 0.22

HMTVTTDITQYFLQENGLLNGPNARQLRQKIGETLNIGYTNGKQLLKRAQQFGLTRDQILTALKK
soluble fraction (log2): 0.278

HMTVVIKVQASQLESWKSSAGTEIKAKLIAVEDEKTYLFVTETGKTIRATAAQLDESSVSRARKLAGL
soluble fraction (log2): -0.514

HMTYGYFELKAKNLDSLKQFLKGIAQVESIEEENNGLKVFLKNELESEELSEKLAEAKIFVSHLAKKK
soluble fraction (log2): -0.617

HMTYKPAADFKPSDTSSLKEGMKVEHPKFGFGTVMKMEEVGTERKARINFADFGEKTLLLSFAKLKIHEN
soluble fraction (log2): -0.361

HMTYNEYPEKEMQDLIDKSISQQEQAASQYGYSLGDYVTARYGFQSESDFREYVQGLAEDYMKEKI
soluble fraction (log2): -1.33

HMTYQHQSIIHRRTRGAILTAAKELLAESGISGTNMIEIADRAQVSRASLYNHFRDKHEVFLALVES
soluble fraction (log2): -0.407

HMTYSAWIEKAYSELEKKGITEAELSDALDKRGINLEDLKLMGPDEAVKYQSEVEGVVLELSKSKE
soluble fraction (log2): -0.319

HMTYSEEEIERDLYVRGTLYQIGDLVENKIDGTSGEIVRRGPNYVQYSDGENFYKAFLHSIQEV
soluble fraction (log2): -1.45

HMTYTMVAYGSQGDAVRQLQSELNRHGYQLDEDGVFGKKTRAAVRDYQKKNSLRLDGIAGDETWGSLLA
soluble fraction (log2): -0.522

HMTYTPRAGSLASQVIGFFRHNPDEELLLDDITDKFDATRGNIHTLLAEAVRFKLLARYRNDDGDYVYKPG
soluble fraction (log2): -1.6

HMVAADTVQVPDVTGKTVADAKQALISAGLQVGTVTAKDGKETANTILETSPAAGTSVDKGSKVNLVYSTG
soluble fraction (log2): -0.0646

HMVAAITDLPVKSVNGRQMYYYVVRKGETVYSLTHTLGITHDRLVKANRSVEDGLRAGQILYFPVSEFG
soluble fraction (log2): -0.00401

HMVAELAEMAENKNITSAQLALAWILKQSENIIPIPGTKRIKYLNENIEAVNVDLSKEDVENIENLLRKYP
soluble fraction (log2): -0.65

HMVAGHLQEKNGQFYAVLSYKDTKGKRRTKWVPTGLMVRGNKKRAEAMLNDIRRKFVPPEQED
soluble fraction (log2): 0.249

HMVAGPDEPLSDREQGVLDLLAEGLSNKAISKQLGISVATVKSHLSNIYGKLQAENRMQAVARARELGLM
soluble fraction (log2): -0.386

HMVAISNTSGLAGVAYWIQSNIPKGIDIRKDNPGIVTIKNWIDEEYRKGRTTTISEEEMFKLVREYMPEL
soluble fraction (log2): -1.12

HMVAMGQRVVPLTHLSIDDVRRLLESTYGKDSGIEVTKPGTAAKGVIVTAPRTELDGIVALVKQA
soluble fraction (log2): 0.0822

HMVAMYLRVGISNGRRYLSIVQGYRDQVTKKVRHNTVKSLGYLDDLEKHYPDPIAHFKAVVEEMNKKQALE
soluble fraction (log2): 0.191

HMVANDQILNQYGISDREAEIIGLLIEGLSNQQIAKQLYISPNTVKTHIKNIYAKVGVNNRLQLFSLLK
soluble fraction (log2): -0.549

HMVANLPFNYKVYAKKGKLYVVISYKDSNGKYKKKWIRTGLDEGTKKKEVNTVADQIAAEYYSSMRLE
soluble fraction (log2): 0.0398

HMVAQQINDFRSERDASTGTLKRPLFDTLRDVISSRAQAYVSATGKPVTVEDLDRIYQAVEAEAKQAL
soluble fraction (log2): -0.349

HMVDDELTARRRVNLRRIADELGGAAAVARKTQKSVQQISSMLNGTKSFGSKIARDIEPKLGLPLQSLDKE
soluble fraction (log2): 0.203

HMVDDRPVTGTTLIREWQGRAYEVIVQAGHFEFQGQRYQSLSAIAKVITGTVWNGWAFFGLR
soluble fraction (log2): -0.444

HMVDDTGLPTVLISDGRLLERNLHRLHLDHTWLQRRLEENNIPSIQSLFLLTVDKQHQLYFLKK
soluble fraction (log2): -0.277

HMVDGTPALTDLKKVSKPGRRHYTGSQEIPRVLNGLGISIVSTSKGIMTGAQARRQKVGGELLAFV
soluble fraction (log2): 0.22

HMVDIIMDLLEAVAQARPADAFIKSLHIQYQERGGLSKKQLQGLYGKAAKTAGIPPGKLATLEAIILKRP
soluble fraction (log2): -0.0377

HMVDITPDLIRTLLERFGEYGVTKEHIEARIQRHIESILPAQVVQLRKTYNSLKDGMSQPSDWFDI
soluble fraction (log2): -1.43

HMVDLEINGRQTLQFVANKYGIPVEKLATDLNIPSDRFGEKLGRLRRQYAFTMNDVRKSILKNK
soluble fraction (log2): 0.215

HMVDPELFIWVESSKEPVYHLAYKIELFVHSTDPQDDVPVHRWQVFVDAHNGNILDKFDEVR
soluble fraction (log2): -1.65

HMVDPRWETPDENLAEQIKSVMPVMWVYDREAKSFVERPAIDFSFSIFERTTLYIYDKDGNEIGFAR
soluble fraction (log2): 0.0599

HMVDQVDKDRFLEALTQLGGSAGNVRLRETLQWEEEVYVIIKDALVKSGTILTGRGRGGSVLLASA
soluble fraction (log2): -0.909

HMVDSLTIGRRIRQLRTERGMTLEELAAAVGRAPSQLSMIENGRREPKLTLLQAIARALGSTLDALLE
soluble fraction (log2): -0.404

HMVDVNLLKYYVMESGKSLTDVAAAIGVTPATLHRKMSGESDFYRKEMQDIASYLGLDRDTIDRIFF
soluble fraction (log2): -0.892

HMVEDIVLTDAQIEFVKQQAKNGLSAFQISEMIWPEMSVKRFSKQHVAVLDFLREYEPAYVHDSE
soluble fraction (log2): -1.85

HMVEELDVQFIKLTVQGDHPWKNKKIRELSIPWDLLFVLIIRGDKSIIPNGKTTIKDGDIVVVSAPEYRG
soluble fraction (log2): -1.5

HMVEFLMESTNGMYGIVKEGSSYYVQKGINESSLDYIGGMFMKDKNRFSSYSTALKRLELISGQET
soluble fraction (log2): -0.497

HMVEGMQFDRGYQSPYFVTNAEKMVAELDNPYILLVEKKISSMKELLPVLEPVAQQGKSLLIISEEVEG
soluble fraction (log2): -0.602

HMVEGTVKWFNDEKGFGFIEQEGGKDVFVHFSAINGSGRRTLHEGQRVTMEVTQGQKGPQAENVNP
soluble fraction (log2): -0.436

HMVEIPEFKITTFVNTDNEQIAEFENGFTDKKAEITFNNTKYVFKEKLPDQDGIRTYVYEELHE
soluble fraction (log2): -0.438

HMVELGMSQNEFIQKFGKPFNKEMAYTYDKHKRETLFYKEDLYRGSWFIVTTAFTFVDSKLVSQEIVREER
soluble fraction (log2): -0.349

HMVENMDEFIGRVRRLVSDRLDLLKEASDDEIRETISQVVLELSREQFLTLNEKKTVLEGVFNSMR
soluble fraction (log2): -1.38

HMVERLVVSPGAGVFAPNKAIANGTRISVGDVLGMVGEQEVRSLFDGVLQSFISVDGERLTAHQPVAWLRT
soluble fraction (log2): -0.111

HMVEVPKVAGMSTAQGVSELEQKGFVVNRTESYDDTVPKGNIISQTPEGGTKVPSGSAVTIKISQGAE
soluble fraction (log2): -0.0558

HMVEVPNVIGMTKPELTQQFVNLKLDGSGEGDVVVQQSPSEGSKVKEGSTVRVYFG
soluble fraction (log2): 0.137

HMVEVPNVSNLTLEQAENKLIQQGLQVKLEGQGEKVVAQIPQPGAVVNKKSTVILF
soluble fraction (log2): 0.0373

HMVFLPDEIFRLKVIKAGEGPEQGVGYLDDGTMVVIEGARDRIGDELEVRVTSTLQTNAGKMIFTKFE
soluble fraction (log2): -2.12

HMVGEPEPIRYSRFLDEMKSGKLDSVVIQGDTILGVRKDKSQFKTVNPETDYSALIGALDKAGVGIEGRA
soluble fraction (log2): 0.149

HMVGEYTVKKGDTLWKIAGQTLGSPLRYAEIYELNKDVIEEAALGRGKKNSSNGHWIFQGTVLKIPA
soluble fraction (log2): -0.255

HMVGIAEAMKHIADEDYGDLSAIFKQIFSDTDGGRNFSDAIRTQMRSTDSSGLRKVLSTLIMSIEE
soluble fraction (log2): -0.854

HMVGNEEALRAIVESIIAQNTTEVASFREGKEGLIGWFLGQVMRQTGGKADPKLARQILLELLKQ
soluble fraction (log2): -0.492

HMVGNYYDILGVPETATQDAIKKAFRSLAQQHHPDKNPDDPGAEAMFKKVSEAYQVLSDPDKRQTYDASL
soluble fraction (log2): -0.0611

HMVIDFYDPQTKVIHEIKKSSAKEEAHVWQVKYYIYLFEKEEIMGVKGVLEYPLLREIVSVNF
soluble fraction (log2): -0.0844

HMVINQRKLNLLSIYSSGSEKRAIILFPTGQTKFVKVGDTLDGGRVAAIGTSEIRYLKGGNNLVLRIPG
soluble fraction (log2): 0.173

HMVINTRHTGFVVDDLERFINFYLGLGLKLISRKVESGEYIDKLVGLKGTKLEWAKLSLPDNSMIEILKYH
soluble fraction (log2): -0.454

HMVIREVNDNPVSAEELRLGDRVKVLSLGQNGEIVTLPDEKGELTVQVGILKAKVNLDDIMLI
soluble fraction (log2): 0.0234

HMVISAKRMQDRRDSILDAAREAFARAGFEGTSIADIARRAGVSDGLVYRYFASKRDLLNAVLTA
soluble fraction (log2): 0.216

HMVIVGGDVIVHYVDTEGKKISDDVVKSGNVGEDYSTDQKTILGYRFKEVQGNTSGKFTDKTQVVTYIYT
soluble fraction (log2): 0.179

HMVKEVKVPDVEGLTTEEAIKELKKYGLAYTTKSEENTDIEEGKVIRTEPKKGSTKVKGSTVTIIESSG
soluble fraction (log2): 0.253

HMVKFGERVKQLRLSAGMTQEQLAERIWVTKAAISNYELSERNPSPETIIKIAGVFGVTTDYLLGLED
soluble fraction (log2): -0.434
